The source of these data is patent US20210322524A1 (CASE WESTERN RESERVE UNIVERSITY, published 2021).

B1: Myc-tagged ATAD3A (other, human, UniProt Q9NVI7 1-586, looked up)
chain: MSWLFGINKGPKGEGAGPPPPLPPAQPGAEGGGDRGLGDRPAPKDKWSNFDPTGLERAAKAARELEHSRYAKDALNLAQMQEQTLQLEQQSKLKEYEAAVEQLKSEQIRAQAEERRKTLSEETRQHQARAQYQDKLARQRYEDQLKQQQLLNEENLRKQEESVQKQEAMRRATVEREMELRHKNEMLRVEAEARARAKAERENADIIREQIRLKAAEHRQTVLESIRTAGTLFGEGFRAFVTDWDKVTATVAGLTLLAVGVYSAKNATLVAGRFIEARLGKPSLVRETSRITVLEALRHPIQVSRRLLSRPQDALEGVVLSPSLEARVRDIAIATRNTKKNRSLYRNILMYGPPGTGKTLFAKKLALHSGMDYAIMTGGDVAPMGREGVTAMHKLFDWANTSRRGLLLFVDEADAFLRKRATEKISEDLRATLNAFLYRTGQHSNKFMLVLASNQPEQFDWAINDRINEMVHFDLPGQEERERLVRMYFDKYVLKPATEGKQRLKLAQFDYGRKCSEVARLTEGMSGREIAQLAVSWQATAYASEDGVLTEAMMDTRVQDAVQQHQQKMCWLKAEGPGRGDEPSPS
notes: also called Myc-ATAD3A; ATAD3A-WT (heterodimer partner); not shown: Myc tag (pCMV-Myc vector)
B3: ATAD3A-Flag protein (human ATAD3A wildtype, Flag-tagged) (other, UniProt Q9NVI7 1-586, looked up)
chain: MSWLFGINKGPKGEGAGPPPPLPPAQPGAEGGGDRGLGDRPAPKDKWSNFDPTGLERAAKAARELEHSRYAKDALNLAQMQEQTLQLEQQSKLKEYEAAVEQLKSEQIRAQAEERRKTLSEETRQHQARAQYQDKLARQRYEDQLKQQQLLNEENLRKQEESVQKQEAMRRATVEREMELRHKNEMLRVEAEARARAKAERENADIIREQIRLKAAEHRQTVLESIRTAGTLFGEGFRAFVTDWDKVTATVAGLTLLAVGVYSAKNATLVAGRFIEARLGKPSLVRETSRITVLEALRHPIQVSRRLLSRPQDALEGVVLSPSLEARVRDIAIATRNTKKNRSLYRNILMYGPPGTGKTLFAKKLALHSGMDYAIMTGGDVAPMGREGVTAMHKLFDWANTSRRGLLLFVDEADAFLRKRATEKISEDLRATLNAFLYRTGQHSNKFMLVLASNQPEQFDWAINDRINEMVHFDLPGQEERERLVRMYFDKYVLKPATEGKQRLKLAQFDYGRKCSEVARLTEGMSGREIAQLAVSWQATAYASEDGVLTEAMMDTRVQDAVQQHQQKMCWLKAEGPGRGDEPSPS
notes: Made cell-free (TNT system) from pcDNA3.1(+)-ATAD3A-Flag for the in vitro assays, or expressed in HEK293 cells; the same construct is used for both here; also called ATAD3A WT; flag-tagged ATAD3A; not shown: Flag tag

Data set [1] deals with B3. As to the kind of experiment: co-IP.
The data set “Myc-tagged ATAD3A” concerns the target B1. As to the kind of experiment: anti-Flag IP, anti-Myc western blot. (In general: A western blot detects proteins with antibodies after separation by electrophoresis.)
Data set [2] has as its target T1, Drp1 (endogenous, human cells and tissue) (human, UniProt O00429 1-736, limits assumed).
T1 construct: Endogenous protein in lysates; also called Dynamin-related protein 1
As to the kind of experiment: IP of total lysates of transfected HEK293 cells.

Data set [3] concerns the molecule itself. As to the kind of experiment: self-association; western blot with or without β-ME, HEK293 cells.
Data set [4] deals with the molecule itself. As to the kind of experiment: self-association; western blot under non-reducing conditions.
Data set [5] concerns the target T1, Drp1 (endogenous, human cells and …). As to the kind of experiment: anti-Drp1 affinity purification and tandem mass spectrometry, neurons from HD patient iPS cells.

T1 sequence (O00429 whole entry): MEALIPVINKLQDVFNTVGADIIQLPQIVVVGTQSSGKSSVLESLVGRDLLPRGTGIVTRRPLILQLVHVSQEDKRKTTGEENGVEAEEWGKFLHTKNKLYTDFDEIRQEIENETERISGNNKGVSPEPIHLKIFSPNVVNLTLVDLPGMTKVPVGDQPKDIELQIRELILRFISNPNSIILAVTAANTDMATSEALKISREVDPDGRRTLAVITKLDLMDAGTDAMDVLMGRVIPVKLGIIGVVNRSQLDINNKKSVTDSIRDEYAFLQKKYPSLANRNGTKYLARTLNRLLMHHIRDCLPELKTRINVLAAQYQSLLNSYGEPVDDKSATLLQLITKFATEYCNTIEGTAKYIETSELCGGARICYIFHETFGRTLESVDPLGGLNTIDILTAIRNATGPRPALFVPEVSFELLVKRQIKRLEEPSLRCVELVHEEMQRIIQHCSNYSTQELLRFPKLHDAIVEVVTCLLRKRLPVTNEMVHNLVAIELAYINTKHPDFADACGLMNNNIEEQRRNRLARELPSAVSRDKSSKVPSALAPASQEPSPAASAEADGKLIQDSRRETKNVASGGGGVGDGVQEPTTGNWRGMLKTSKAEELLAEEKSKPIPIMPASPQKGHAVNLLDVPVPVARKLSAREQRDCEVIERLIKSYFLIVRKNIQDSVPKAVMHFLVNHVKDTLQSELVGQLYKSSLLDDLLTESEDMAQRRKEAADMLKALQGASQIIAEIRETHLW

For the molecule B1, the binding result in data set [1] is “binds”.

B2: ATAD3A K135Q (Flag-tagged) (other, human, UniProt Q9NVI7 1-586, looked up)
chain: MSWLFGINKGPKGEGAGPPPPLPPAQPGAEGGGDRGLGDRPAPKDKWSNFDPTGLERAAKAARELEHSRYAKDALNLAQMQEQTLQLEQQSKLKEYEAAVEQLKSEQIRAQAEERRKTLSEETRQHQARAQYQDQLARQRYEDQLKQQQLLNEENLRKQEESVQKQEAMRRATVEREMELRHKNEMLRVEAEARARAKAERENADIIREQIRLKAAEHRQTVLESIRTAGTLFGEGFRAFVTDWDKVTATVAGLTLLAVGVYSAKNATLVAGRFIEARLGKPSLVRETSRITVLEALRHPIQVSRRLLSRPQDALEGVVLSPSLEARVRDIAIATRNTKKNRSLYRNILMYGPPGTGKTLFAKKLALHSGMDYAIMTGGDVAPMGREGVTAMHKLFDWANTSRRGLLLFVDEADAFLRKRATEKISEDLRATLNAFLYRTGQHSNKFMLVLASNQPEQFDWAINDRINEMVHFDLPGQEERERLVRMYFDKYVLKPATEGKQRLKLAQFDYGRKCSEVARLTEGMSGREIAQLAVSWQATAYASEDGVLTEAMMDTRVQDAVQQHQQKMCWLKAEGPGRGDEPSPS
notes: Expressed in HEK293 cells; also called K135Q mutant; acetyl-mimetic ATAD3A K135Q mutant; not shown: Flag tag
In the case of B2, the binding result in the data set with Myc-tagged ATAD3A is recorded as “binds”; in data set [2], “no binding”; in data set [3], “binds”.
As to B3, the binding result in data set [3] was “binds”.

B4: ATAD3A K135E (Flag-tagged) (other, human, UniProt Q9NVI7 1-586, looked up)
chain: MSWLFGINKGPKGEGAGPPPPLPPAQPGAEGGGDRGLGDRPAPKDKWSNFDPTGLERAAKAARELEHSRYAKDALNLAQMQEQTLQLEQQSKLKEYEAAVEQLKSEQIRAQAEERRKTLSEETRQHQARAQYQDELARQRYEDQLKQQQLLNEENLRKQEESVQKQEAMRRATVEREMELRHKNEMLRVEAEARARAKAERENADIIREQIRLKAAEHRQTVLESIRTAGTLFGEGFRAFVTDWDKVTATVAGLTLLAVGVYSAKNATLVAGRFIEARLGKPSLVRETSRITVLEALRHPIQVSRRLLSRPQDALEGVVLSPSLEARVRDIAIATRNTKKNRSLYRNILMYGPPGTGKTLFAKKLALHSGMDYAIMTGGDVAPMGREGVTAMHKLFDWANTSRRGLLLFVDEADAFLRKRATEKISEDLRATLNAFLYRTGQHSNKFMLVLASNQPEQFDWAINDRINEMVHFDLPGQEERERLVRMYFDKYVLKPATEGKQRLKLAQFDYGRKCSEVARLTEGMSGREIAQLAVSWQATAYASEDGVLTEAMMDTRVQDAVQQHQQKMCWLKAEGPGRGDEPSPS
notes: Expressed in HEK293 cells; also called K135E mutant; acetyl-deficient mutant K135E; not shown: Flag tag
With B4, the binding result (in the data set with Myc-tagged ATAD3A; in data set [2]; in data set [3]) was “binds” throughout.

B5: ATAD3A K135R (Flag-tagged) (other, human, UniProt Q9NVI7 1-586, looked up)
chain: MSWLFGINKGPKGEGAGPPPPLPPAQPGAEGGGDRGLGDRPAPKDKWSNFDPTGLERAAKAARELEHSRYAKDALNLAQMQEQTLQLEQQSKLKEYEAAVEQLKSEQIRAQAEERRKTLSEETRQHQARAQYQDRLARQRYEDQLKQQQLLNEENLRKQEESVQKQEAMRRATVEREMELRHKNEMLRVEAEARARAKAERENADIIREQIRLKAAEHRQTVLESIRTAGTLFGEGFRAFVTDWDKVTATVAGLTLLAVGVYSAKNATLVAGRFIEARLGKPSLVRETSRITVLEALRHPIQVSRRLLSRPQDALEGVVLSPSLEARVRDIAIATRNTKKNRSLYRNILMYGPPGTGKTLFAKKLALHSGMDYAIMTGGDVAPMGREGVTAMHKLFDWANTSRRGLLLFVDEADAFLRKRATEKISEDLRATLNAFLYRTGQHSNKFMLVLASNQPEQFDWAINDRINEMVHFDLPGQEERERLVRMYFDKYVLKPATEGKQRLKLAQFDYGRKCSEVARLTEGMSGREIAQLAVSWQATAYASEDGVLTEAMMDTRVQDAVQQHQQKMCWLKAEGPGRGDEPSPS
notes: Expressed in HEK293 cells; also called K135R mutant; acetyl-deficient mutant K135R; not shown: Flag tag
In the case of B5, the binding result in data set [2] and in data set [3] was “binds” each time.

B6: ATAD3A (endogenous, mouse cells and mouse striatum) (other, UniProt Q925I1 2-591, looked up)
chain: SWLFGIKGPKGEGTGPPLPLPPAQPGAEGGGDRGAGDRPSPKDKWSNFDPTGLERAAKAARELEHSRHAKEALSLAQMQEQTLQLEQQSKLKEYEAAVEQLKSEQIRVQAEERRKTLTEETRQHQARAQYQDKLARQRYEDQLKQQQLLNEENLRKQEESVQKQEAIRRATVEREMELRHKNEMLRVEAEARARAKADRENADIIREQIRLKAAEHRQTILESIRTAGTLLGEGFRAFVTDWDKVTATVAGLTLLAVGVYSAKNATSVAGRYIEARLGKPSLVRETSRISVLEALRHPIQVSRRLVSRPQDALEGVILSPSLEARVRDIAIATRNTKKNKSLYRNVLMYGPPGTGKTLFAKKLALHSGMDYAIMTGGDVAPMGREGVTAMHKVFDWASTSRRGLLLFVDEADAFLRKRATEKISEDLRATLNAFLHRTGQHSSKFMLVLASNQPEQFDWAINDRIDEMVCFALPQREERERLVRMYFDKYVLKPATEGKQRLKVAQFDYGKKCSEVAQLTEGMSGREIAQLAVAWQAMAYSSEDGVLTEAMMDARVQDAVQQHQQKMQWLKVERPDSQTNKPPHPSLLSC
notes: Endogenous protein in lysates; also called endogenous ATAD3A
B6: the binding result in data set [4] is reported as “binds”.

B7: ATAD3A (endogenous, human cells and tissue) (other, UniProt Q9NVI7 2-586, looked up)
chain: SWLFGINKGPKGEGAGPPPPLPPAQPGAEGGGDRGLGDRPAPKDKWSNFDPTGLERAAKAARELEHSRYAKDALNLAQMQEQTLQLEQQSKLKEYEAAVEQLKSEQIRAQAEERRKTLSEETRQHQARAQYQDKLARQRYEDQLKQQQLLNEENLRKQEESVQKQEAMRRATVEREMELRHKNEMLRVEAEARARAKAERENADIIREQIRLKAAEHRQTVLESIRTAGTLFGEGFRAFVTDWDKVTATVAGLTLLAVGVYSAKNATLVAGRFIEARLGKPSLVRETSRITVLEALRHPIQVSRRLLSRPQDALEGVVLSPSLEARVRDIAIATRNTKKNRSLYRNILMYGPPGTGKTLFAKKLALHSGMDYAIMTGGDVAPMGREGVTAMHKLFDWANTSRRGLLLFVDEADAFLRKRATEKISEDLRATLNAFLYRTGQHSNKFMLVLASNQPEQFDWAINDRINEMVHFDLPGQEERERLVRMYFDKYVLKPATEGKQRLKLAQFDYGRKCSEVARLTEGMSGREIAQLAVSWQATAYASEDGVLTEAMMDTRVQDAVQQHQQKMCWLKAEGPGRGDEPSPS
notes: Endogenous protein in lysates
As for B7, the binding result in data set [4] and in data set [5] was “binds” throughout.
